For assay [1], the target named is HLA-Cw*0302 (Cw10) (human). Briefly: Luminex, iBead vs regular bead MFI, 1:4.
Assay [2] has as its target HLA-Cw*0303 (Cw9) (human). Kind of assay: Luminex, iBead vs regular bead MFI, 1:4.
Assay [3] addresses HLA-Cw*0401 (Cw4) (human). Briefly: Luminex, iBead vs regular bead MFI, 1:4.
For assay [4], the target named is HLA-Cw*0501 (Cw5) (human). Kind of assay: Luminex, iBead vs regular bead MFI, 1:4.
For assay [5], the target named is HLA-Cw*1402 (Cw14) (human). Briefly: Luminex, iBead vs regular bead MFI, 1:4.
Assay [6] addresses HLA-Cw*1502 (Cw15) (human). Kind of assay: Luminex, iBead vs regular bead MFI, 1:4.
Assay [7] concerns the target HLA-Cw*1701 (Cw17) (human). Kind of assay: Luminex, iBead vs regular bead MFI, 1:4.
Assay [8] deals with HLA-A*2902 (A29) single antigen on beads (human). Kind of assay: Luminex, iBead vs regular bead, IVIg 1:4.
Assay [9] concerns the target HLA-A*3002 (A30) single antigen on beads (human). Kind of assay: Luminex, iBead vs regular bead, IVIg 1:4.
The target in assay [10] is HLA-A*3201 (A32) single antigen on beads (human). Kind of assay: Luminex, iBead vs regular bead, IVIg 1:4.
For assay [11], the target named is HLA-A*3301 (A33) single antigen on beads (human). Kind of assay: Luminex, iBead vs regular bead, IVIg 1:4.
In assay [12] the target is HLA-A*3401 (A34) single antigen on beads (human). Briefly: Luminex, iBead vs regular bead, IVIg 1:4.
In assay [13] the target is HLA-A*6601 (A66) single antigen on beads (human). Kind of assay: Luminex, iBead vs regular bead, IVIg 1:4.
Assay [14] deals with HLA-A*6602 (A66) single antigen on beads (human). Briefly: Luminex, iBead vs regular bead, IVIg 1:4.
In assay [15] the target is HLA-A*2902 (A29) single antigen on beads (human). Briefly: Luminex single-antigen regular beads (#7), IVIg 1:4.
In assay [16] the target is HLA-A*3002 (A30) single antigen on beads (human). Described as above.
For assay [17], the target named is HLA-A*3101 (A31) single antigen on beads (human). Described as above.
The target in assay [18] is HLA-A*3201 (A32) single antigen on beads (human). The assay is described as above.
For assay [19], the target named is HLA-A*3301 (A33) single antigen on beads (human). The assay is described as above.
For assay [20], the target named is HLA-A*3303 (A33) single antigen on beads (human). The assay is described as above.
In assay [21] the target is HLA-A*3402 (A34) single antigen on beads (human). The description is as above.
The target in assay [22] is HLA-A*6601 (A66) single antigen on beads (human). Described as above.
Assay [23] deals with HLA-A*6801 (A68) single antigen on beads (human). Described as above.
The target in another assay is HLA-B*0702 (B7) (human). Kind of assay: iBead MFI against regular-bead MFI, IVIg diluted 1:4.
The target in a further assay is HLA-B*0801 (B8) (human). The assay is described as above.
The next assay addresses HLA-B*1301 (B13) (human). The assay is described as above.
Another assay has as its target HLA-B*1302 (B13) (human). The description is as above.
In the next assay the target is HLA-B*1401 (B64) (human). Described as above.
The target of another assay is HLA-B*1402 (B65) (human). The description is as above.
The next assay has as its target HLA-B*1503 (B72) (human). The description is as above.
A further assay has as its target HLA-B*1510 (B71) (human). Described as above.
Another assay deals with HLA-B*1511 (B75) (human). The assay is described as above.
Another assay addresses HLA-B*1512 (B76) (human). Described as above.
The target in a further assay is HLA-B*1513 (B77) (human). The assay is described as above.
The next assay addresses HLA-B*1516 (B63) (human). Described as above.
The target of assay [24] is HLA-B*2705 (B27) single antigen on Luminex beads (human). Kind of assay: Luminex single antigen, regular beads (#7), IVIg 1:8.
Assay [25] concerns the target HLA-B*2708 (B27) single antigen on Luminex beads (human). Described as above.
Assay [26] concerns the target HLA-B*3501 (B35) single antigen on Luminex beads (human). Described as above.
The target of assay [27] is HLA-B*3701 (B37) single antigen on Luminex beads (human). Described as above.
Assay [28] deals with HLA-B*3901 (B39) single antigen on Luminex beads (human). Described as above.
In assay [29] the target is HLA-B*4001 (B60) single antigen on Luminex beads (human). The description is as above.
The target in assay [30] is HLA-B*4201 (B42) single antigen on Luminex beads (human). The description is as above.
Assay [31] has as its target HLA-B*4601 (B46) single antigen on Luminex beads (human). Described as above.
In assay [32] the target is HLA-B*4701 (B47) single antigen on Luminex beads (human). The assay is described as above.

In the case of “IVIg Sandoglobulin (Novartis, Basel, Switzerland) (antibody)”, the Difference % in assay [1] was -49%; in [2], -29%; in assay [3], -62%; in assay [4], -42%; in [5], -59%; in assay [6] it was -41%. The Difference % in assay [7] was -29%. Moreover, the Difference % (iBead MFI vs regular bead MFI) was determined as 366% in assay [8]; 202% in assay [9]; 202% in [10]; 270% in assay [11]; 80% in assay [12]; 742% in assay [13]. The substance further yielded a Difference % (iBead MFI vs regular bead MFI) in assay [14] of 111%. For the same substance, the MFI worked out at 200 MFI in [15]; 174 MFI in assay [16]; 0 MFI in assay [17]; 255 MFI in [18]; 185 MFI in assay [19]; 0 MFI in assay [20]. Besides, the MFI amounted to 0 MFI in [21], 93 MFI in assay [22] and 0 MFI in assay [23]. Moreover, the Difference % (iBead vs regular bead) with HLA-B*0702 (B7) (human) is 41%; with HLA-B*0801 (B8) (human), 18%; with HLA-B*1301 (B13) (human), -4%; with HLA-B*1302 (B13) (human), 5%; with HLA-B*1401 (B64) (human) it was -67%; in the assay with HLA-B*1402 (B65) (human) it was -36%. Also, the Difference % (iBead vs regular bead) is 0% with HLA-B*1503 (B72) (human); 13% in the assay with HLA-B*1510 (B71) (human); -13% in the assay with HLA-B*1511 (B75) (human); 199% with HLA-B*1512 (B76) (human); -19% with HLA-B*1513 (B77) (human); -5% in the assay with HLA-B*1516 (B63) (human).

Take “Octagam (IVIg, Octapharma, Lachen, Switzerland) (antibody)”: the MFI in assay [24] came to 154 MFI; in assay [25] it was 54 MFI; in [26], 964 MFI; in assay [27] it was 9970 MFI; in assay [28] it was 0 MFI; in assay [29], 987 MFI. The MFI in [30] was 364 MFI; in assay [31], 2440 MFI; in [32] it was 2200 MFI.

For the origin of these results see patent US10800847.
